Patent US20040018561A1, “Peptide compounds and their use as protease substrates” (priority 2002, published 2004)

Legend:
[1] = substrate: COc1ccc2c(CC(=O)N[C@@H](CCCNC(=N)N)C(=O)N3CCC[C@@H]3C(=O)N[C@@H](CC(C)C)C(=O)NCC(=O)N[C@@H](CC(C)C)C(=O)N[C@H](CNc3ccc([N+](=O)[O-])cc3[N+](=O)[O-])C(=O)N[C@@H](C)C(=O)N[C@H](CCCNC(=N)N)C(=O)N[C@@H](CCC(=O)O)C(=O)N[C@H](CCCNC(=N)N)C(N)=O)cc(=O)oc2c1; assay: Km and kcat/Km of substrates with MMP-2; format: biochemical; conditions: other: substrate cleavage by MMP-2
[2] = substrate: COc1ccc2c(CC(=O)N[C@@H](CCCNC(=N)N)C(=O)N3CCC[C@H]3C(=O)N[C@@H](CC(C)C)C(=O)NCC(=O)N[C@@H](CCCCOCc3ccccc3)C(=O)N[C@@H](CNc3ccc([N+](=O)[O-])cc3[N+](=O)[O-])C(=O)N[C@@H](C)C(=O)N[C@@H](CCCNC(=N)N)C(=O)N[C@@H](CCC(=O)O)C(=O)N[C@@H](CCCNC(=N)N)C(N)=O)cc(=O)oc2c1; assay: Km and kcat/Km of substrates with MMP-2; format: biochemical; conditions: other: substrate cleavage by MMP-2
[3] = substrate: COc1ccc2c(CC(=O)N[C@H](CCCNC(=N)N)C(=O)N3CCC[C@H]3C(=O)N[C@@H](CC(C)C)C(=O)NCC(=O)N[C@@H](CCCCOCc3ccccc3)C(=O)N[C@@H](CNc3ccc([N+](=O)[O-])cc3[N+](=O)[O-])C(=O)N[C@@H](C)C(=O)N[C@H](CCCNC(=N)N)C(=O)N[C@H](CCC(=O)O)C(=O)N[C@H](CCCNC(=N)N)C(N)=O)cc(=O)oc2c1; assay: Km and kcat/Km of substrates with MMP-2; format: biochemical; conditions: other: substrate cleavage by MMP-2
[4] = substrate: COc1ccc2c(CC(=O)N[C@H](CCCNC(=N)N)C(=O)N3CCC[C@H]3C(=O)N[C@@H](CC(C)C)C(=O)NCC(=O)N[C@@H](CCCCOc3ccccc3)C(=O)N[C@@H](CNc3ccc([N+](=O)[O-])cc3[N+](=O)[O-])C(=O)N[C@@H](C)C(=O)N[C@H](CCCNC(=N)N)C(=O)N[C@H](CCC(=O)O)C(=O)N[C@H](CCCNC(=N)N)C(N)=O)cc(=O)oc2c1; assay: Km and kcat/Km of substrates with MMP-2; format: biochemical; conditions: other: substrate cleavage by MMP-2
[5] = substrate: COc1ccc2c(CC(=O)N[C@@H](CCCNC(=N)N)C(=O)N3CCCC3C(=O)N[C@@H](CC(C)C)C(=O)NCC(=O)N[C@@H](CC(C)C)C(=O)N[C@H](CNc3ccc([N+](=O)[O-])cc3[N+](=O)[O-])C(=O)N[C@@H](C)C(=O)N[C@H](CCCNC(=N)N)C(=O)N[C@@H](CCC(=O)O)C(=O)N[C@H](CCCNC(=N)N)C(N)=O)cc(=O)oc2c1; assay: purified protein, by the assay type; conditions: other: substrate cleavage by MMP-9
[6] = substrate: COc1ccc2c(CC(=O)N[C@@H](CCCNC(=N)N)C(=O)N3CCC[C@@H]3C(=O)N[C@@H](CC(C)C)C(=O)NCC(=O)N[C@@H](CC(C)C)C(=O)N[C@H](CNc3ccc([N+](=O)[O-])cc3[N+](=O)[O-])C(=O)N[C@@H](C)C(=O)N[C@H](CCCNC(=N)N)C(=O)N[C@@H](CCC(=O)O)C(=O)N[C@H](CCCNC(=N)N)C(N)=O)cc(=O)oc2c1; assay: purified protein, by the assay type; conditions: other: substrate cleavage by MMP-9
[7] = substrate: COc1ccc2c(CC(=O)N[C@@H](CCCNC(=N)N)C(=O)N3CCCC3C(=O)N[C@@H](CC(C)C)C(=O)NCC(=O)N[C@@H](CC(C)C)C(=O)N[C@H](CNc3ccc([N+](=O)[O-])cc3[N+](=O)[O-])C(=O)N[C@@H](C)C(=O)N[C@H](CCCNC(=N)N)C(=O)N[C@@H](CCC(=O)O)C(=O)N[C@H](CCCNC(=N)N)C(N)=O)cc(=O)oc2c1; assay: Km and kcat/Km of substrates with MMP-9; format: biochemical; conditions: other: substrate cleavage by MMP-9
[8] = substrate: COc1ccc2c(CC(=O)N[C@@H](CCCNC(=N)N)C(=O)N3CCC[C@H]3C(=O)N[C@@H](CC(C)C)C(=O)NCC(=O)N[C@@H](CCCCOCc3ccccc3)C(=O)N[C@@H](CNc3ccc([N+](=O)[O-])cc3[N+](=O)[O-])C(=O)N[C@@H](C)C(=O)N[C@@H](CCCNC(=N)N)C(=O)N[C@@H](CCC(=O)O)C(=O)N[C@@H](CCCNC(=N)N)C(N)=O)cc(=O)oc2c1; assay: Km and kcat/Km of substrates with MMP-9; format: biochemical; conditions: other: substrate cleavage by MMP-9
[9] = substrate: COc1ccc2c(CC(=O)N[C@H](CCCNC(=N)N)C(=O)N3CCC[C@H]3C(=O)N[C@@H](CC(C)C)C(=O)NCC(=O)N[C@@H](CCCCOCc3ccccc3)C(=O)N[C@@H](CNc3ccc([N+](=O)[O-])cc3[N+](=O)[O-])C(=O)N[C@@H](C)C(=O)N[C@H](CCCNC(=N)N)C(=O)N[C@H](CCC(=O)O)C(=O)N[C@H](CCCNC(=N)N)C(N)=O)cc(=O)oc2c1; assay: Km and kcat/Km of substrates with MMP-9; format: biochemical; conditions: other: substrate cleavage by MMP-9
[10] = substrate: COc1ccc2c(CC(=O)N[C@H](CCCNC(=N)N)C(=O)N3CCC[C@H]3C(=O)N[C@@H](CC(C)C)C(=O)NCC(=O)N[C@@H](CCCCOc3ccccc3)C(=O)N[C@@H](CNc3ccc([N+](=O)[O-])cc3[N+](=O)[O-])C(=O)N[C@@H](C)C(=O)N[C@H](CCCNC(=N)N)C(=O)N[C@H](CCC(=O)O)C(=O)N[C@H](CCCNC(=N)N)C(N)=O)cc(=O)oc2c1; assay: Km and kcat/Km of substrates with MMP-9; format: biochemical; conditions: other: substrate cleavage by MMP-9
[11] = substrate: COc1ccc2c(CC(=O)N[C@@H](CCCNC(=N)N)C(=O)N3CCC[C@@H]3C(=O)N[C@@H](CC(C)C)C(=O)NCC(=O)N[C@@H](CC(C)C)C(=O)N[C@H](CNc3ccc([N+](=O)[O-])cc3[N+](=O)[O-])C(=O)N[C@@H](C)C(=O)N[C@H](CCCNC(=N)N)C(=O)N[C@@H](CCC(=O)O)C(=O)N[C@H](CCCNC(=N)N)C(N)=O)cc(=O)oc2c1; assay: Km and kcat/Km of substrates with MMP-7; format: biochemical; conditions: other: substrate cleavage by MMP-7
[12] = substrate: COc1ccc2c(CC(=O)N[C@H](CCCNC(=N)N)C(=O)N3CCC[C@H]3C(=O)N[C@@H](CC(C)C)C(=O)NCC(=O)N[C@@H](CCCCOCc3ccccc3)C(=O)N[C@@H](CNc3ccc([N+](=O)[O-])cc3[N+](=O)[O-])C(=O)N[C@@H](C)C(=O)N[C@H](CCCNC(=N)N)C(=O)N[C@H](CCC(=O)O)C(=O)N[C@H](CCCNC(=N)N)C(N)=O)cc(=O)oc2c1; assay: Km and kcat/Km of substrates with MMP-7; format: biochemical; conditions: other: substrate cleavage by MMP-7
[13] = substrate: COc1ccc2c(CC(=O)N[C@@H](CCCNC(=N)N)C(=O)N3CCC[C@@H]3C(=O)N[C@@H](CC(C)C)C(=O)NCC(=O)N[C@@H](CC(C)C)C(=O)N[C@H](CNc3ccc([N+](=O)[O-])cc3[N+](=O)[O-])C(=O)N[C@@H](C)C(=O)N[C@H](CCCNC(=N)N)C(=O)N[C@@H](CCC(=O)O)C(=O)N[C@H](CCCNC(=N)N)C(N)=O)cc(=O)oc2c1; assay: Km and kcat/Km of substrates with MMP-1; format: biochemical; conditions: other: substrate cleavage by MMP-1
[14] = substrate: COc1ccc2c(CC(=O)N[C@H](CCCNC(=N)N)C(=O)N3CCC[C@H]3C(=O)N[C@@H](CC(C)C)C(=O)NCC(=O)N[C@@H](CCCCOCc3ccccc3)C(=O)N[C@@H](CNc3ccc([N+](=O)[O-])cc3[N+](=O)[O-])C(=O)N[C@@H](C)C(=O)N[C@H](CCCNC(=N)N)C(=O)N[C@H](CCC(=O)O)C(=O)N[C@H](CCCNC(=N)N)C(N)=O)cc(=O)oc2c1; assay: Km and kcat/Km of substrates with MMP-1; format: biochemical; conditions: other: substrate cleavage by MMP-1

B1: MMP-2 (Homo sapiens) (protein)
chain: YNFFPRKPKWDKNQITYRIIGYTPDLDPETVDDAFARAFQVWSDVTPLRFSRIHDGEADIMINFGRWEHGDGYPFDGKDGLLAHAFAPGTGVGGDSHFDDDELWTLGEGQVVRVKYGNADGEYCKFPFLFNGKEYNSCTDTGRSDGFLWCSTTYNFEKDGKYGFCPHEALFTMGGNAEGQPCKFPFRFQGTSYDSCTTEGRTDGYRWCGTTEDYDRDKKYGFCPETAMSTVGGNSEGAPCVFPFTFLGNKYESCTSAGRSDGKMWCATTANYDDDRKWGFCPDQGYSLFLVAAHEFGHAMGLEHSQDPGALMAPIYTYTKNFRLSQDDIKGIQELYGASPDIDLGTGPTPTLGPVTPEICKQDIVFDGIAQIRGEIFFFKDRFIWRTVTPRDKPMGPLLVATFWPELPEKIDAVYEAPQEEKAVFFAGNEYWIYSASTLERGYPKPLTSLGLPPDVQRVDAAFNWSKNKKTYIFAGDKFWRYNEVKKKMDPGFPKLIADAWNAIPDNLDAVVDLQGGGHSYFFKGAYYLKLENQSLKSVKFGSIKSDWLGC
Km [1]: 9.9 µM
kcat/Km [1]: 17.8 M^−1s^−1×10^4
Km [2]: 8.3 µM
kcat/Km [2]: 134 M^−1s^−1×10^4
Km [3]: 3.7 µM
kcat/Km [3]: 60 M^−1s^−1×10^4
Km [4]: 3.6 µM
kcat/Km [4]: 196 M^−1s^−1×10^4

B2: MMP-9 (Homo sapiens) (protein)
chain: MRTPRCGVPDLGRFQTFEGDLKWHHHNITYWIQNYSEDLPRAVIDDAFARAFALWSAVTPLTFTRVYSRDADIVIQFGVAEHGDGYPFDGKDGLLAHAFPPGPGIQGDAHFDDDELWSLGKGVVVPTRFGNADGAACHFPFIFEGRSYSACTTDGRSDGLPWCSTTANYDTDDRFGFCPSERLYTQDGNADGKPCQFPFIFQGQSYSACTTDGRSDGYRWCATTANYDRDKLFGFCPTRADSTVMGGNSAGELCVFPFTFLGKEYSTCTSEGRGDGRLWCATTSNFDSDKKWGFCPDQGYSLFLVAAHEFGHALGLDHSSVPEALMYPMYRFTEGPPLHKDDVNGIRHLYGPRPEPEPRPPTTTTPQPTAPPTVCPTGPPTVHPSERPTAGPTGPPSAGPTGPPTAGPSTATTVPLSPVDDACNVNIFDAIAEIGNQLYLFKDGKYWRFSEGRGSRPQGPFLIADKWPALPRKLDSVFEERLSKKLFFFSGRQVWVYTGASVLGPRRLDKLGLGADVAQVTGALRSGRGKMLLFSGRRLWRFDVKAQMVDPRSASEVDRMFPGVPLDTHDVFQYREKAYFCQDRFYWRVSSRSELNQVDQVGYVTYDILQCPED
Km [5]: 8.2 µM
kcat/Km [5]: 133 M^−1s^−1×10^4
Km [6]: 6.4 µM
kcat/Km [6]: 41.8 M^−1s^−1×10^4
Km [7]: 6.2 µM
kcat/Km [7]: 129 M^−1s^−1×10^4
Km [8]: 2.3 µM
kcat/Km [8]: 147 M^−1s^−1×10^4
Km [9]: 3.3 µM
kcat/Km [9]: 31.9 M^−1s^−1×10^4
Km [10]: 1.4 µM
kcat/Km [10]: 191 M^−1s^−1×10^4

B3: MMP-7 (Homo sapiens) (protein)
chain: YSLFPNSPKWTSKVVTYRIVSYTRDLPHITVDRLVSKALNMWGKEIPLHFRKVVWGTADIMIGFARGAHGDSYPFDGPGNTLAHAFAPGTGLGGDAHFDEDERWTDGSSLGINFLYAATHELGHSLGMGHSSDPNAVMYPTYGNGDPQNFKLSQDDIKGIQKLYGKRSNSRKK
Km [11]: 81.2 µM
kcat/Km [11]: 2.2 M^−1s^−1×10^4
Km [12]: 94.7 µM
kcat/Km [12]: 0.298 M^−1s^−1×10^4

B4: MMP-1 (Homo sapiens) (protein)
chain: FVLTEGNPRWEQTHLTYRIENYTPDLPRADVDHAIEKAFQLWSNVTPLTFTKVSEGQADIMISFVRGDHRDNSPFDGPGGNLAHAFQPGPGIGGDAHFDEDERWTNNFREYNLHRVAAHELGHSLGLSHSTDIGALMYPSYTFSGDVQLAQDDIDGIQAIYGRSQNPVQPIGPQTPKACDSKLTFDAITTIRGEVMFFKDRFYMRTNPFYPEVELNFISVFWPQLPNGLEAAYEFADRDEVRFFKGNKYWAVQGQNVLHGYPKDIYSSFGFPRTVKHIDAALSEENTGKTYFFVANKYWRYDEYKRSMDPGYPKMIAHDFPGIGHKVDAVFMKDGFFYFFHGTRQYKFDPKTKRILTLQKANSWFNCRKN
Km [13]: 49 µM
kcat/Km [13]: 5.7 M^−1s^−1×10^4
Km [14]: 35.1 µM
kcat/Km [14]: 0.36 M^−1s^−1×10^4
